{
  "source": "patent US9023353B2",
  "about": "“Anti-(+)—methamphetamine monoclonal antibodies” (Board of Trustees University of Arkansas, priority 2013, dated 2015)",
  "key": {"[1]": {"assay": "(±)-METH priming-induced reinstatement (relapse) of lever pressing", "format": "in vivo, male Long Evans rat", "details": "for response rate (lever presses on reinforced lever): Day 1, 1 mg/kg ip (±)-METH prime", "description": "The male Long Evans rat was chosen as the animal model for this study because it is a preferred rodent species for preclinical toxicity testing of drug self-administration paradigms. Commercially obtained test chambers equipped with two retractable levers, a white cue light positioned above each lever, a 5-w house light, and a Sonalert® tone generator (MED Associates, Inc., St. Albans, Vt.) emitting a 2900 Hz, 60 dB tone were used. Infusions were delivered in a 0.2 ml volume by a 6-s activation of infusion pumps (Model PHS-100; MED Associates, Inc., St. Albans, Vt.). Recordings of lever presses and activations of lights, pumps, and Sonalerts® were accomplished by a microcomputer, interface and associated software (MED-PC® IV, MED Associates, Inc., St. Albans, Vt.).\n(±)-METH self-administration (SA) training sessions were conducted five days per week (M-F) for 2 hrs daily. At the start of (±)-METH SA sessions, the levers were extended and the house light was illuminated. […] At the start of an infusion the house light was extinguished, the Sonalert® was sounded, and the cue lights above each lever flashed at 3 Hz. The Sonalert® and cue lights remained activated during the 6 s infusion. Twenty seconds following the onset of the infusion the house light was re-illuminated, and the opportunity to self-administer (±)-METH was again made available (i.e., each (±)-METH infusion initiated a 20 s period during which lever presses were recorded but were without scheduled consequences and further infusions could not be obtained). Reinforced-lever (right-side) lever presses during the infusions as well as all non-reinforced (left-side) lever presses were recorded, but the latter were without scheduled consequences.\nSA training continued until all three criteria had been met: 1) at least 12 self-administration sessions occurred; 2) at least 15 (±)-METH infusions occurred during each of the last four sessions; and, 3) at least 125 lifetime (±)-METH infusions were obtained. Subsequently, twelve 2-h daily (Mon-Sun) extinction sessions were conducted. […] Other conditions during extinction were identical to those during SA. That is, during extinction sessions, both levers were extended and the house light was activated. Before the last four extinction sessions, an injection of saline (the vehicle for (±)-METH prime) was administered ip 30 min pre-session to acclimate the rats to the injection procedure.\nReinstatement testing followed extinction training. A rat was considered eligible for subsequent reinstatement testing if during the last three extinction sessions the mean number of reinforced-lever lever presses was less than the mean number occurring during the first three extinction sessions. […] One rat in the vehicle group was inadvertently retained, even though its response mean (12.3 responses) during the last three extinction sessions exceeded its first three extinction sessions (11.6 responses). Reinstatement testing occurred across 13 daily (Mon-Sun) 2-h experimental sessions. Conditions during reinstatement testing were identical to those during extinction training with two exceptions.\nThe ip route of (±)-METH exposure during relapse testing was selected mainly for convenience of dosing and to avoid additional use of the catheters. […] The dose volume for each animal was based on the most recent body weight measurement.\nBody weights, eating behavior, and general health observations were recorded for each animal. Analyses of an animal's lever pressing responses to vehicle and (±)-METH-induced relapse to active lever responding were used as a measure of the animal's response to an ip injection of vehicle (control) or (±)-METH (1.0 mg/kg).\nInitially, the number of right-side lever presses occurring during test days between test groups was compared using a two-factor, repeated measures ANOVA (Prism 5 for Macintosh, GraphPad Software, Inc., San Diego, Calif.). […]"}, "[2]": {"assay": "long-term in vivo METH binding function during continuous sc (+)-METH infusion", "design": "species or system Sprague-Dawley rats", "details": "rats, single iv mAb dose 180 mg/kg, sc (+)-METH infusion 5.6 mg/kg/day, serum METH to day 13", "description": "FIG. 1 depicts two graphs showing changes in METH in vivo binding by anti-METH monoclonal antibodies (mAbs) in the presence of a 13 day continuous METH infusion. Once METH achieved steady-state levels (pre-mAb) in each of the Sprague-Dawley rats (n=2 per group), a single dose of vehicle treatment (METH only) or of treatment with three different anti-METH mAbs were given as an iv bolus (180 mg/kg, equimolar in binding sites to the METH body burden). Serum samples were collected before the mAb treatment and at various time points after mAb treatment for determination of METH concentrations over time (A). Values represent the mean METH concentration of each group for each time point. METH AUC data is shown in (B). […]\nAbout 16 h after pumps implantation, the rats were anesthetized with halothane. […] METH concentrations in serum samples were then determined by liquid chromatograph/mass spectrometry/mass spectrometry (LC/MS/MS) analysis by a previously reported method from our laboratory (Laurenzana E M et al. Drug Metab Dispos (1995) 23: 271-278).\nThe route of (+)-METH dosing was a subcutaneous (sc) infusion. […] Body weights, eating behavior, and general health observations were recorded for each animal. (+)-METH concentrations were determined by LC/MS/MS, similar to the method described by described by (Laurenzana E M et al. Drug Metab Dispos (1995) 23: 271-278). […]"}, "[3]": {"assay": "terminal elimination half-life in rats", "format": "in vivo", "details": "unpublished finding"}},
  "note": "“Also recorded” adds a separate entry of the source.",
  "data": [
    {"molecule": "Antibody 51: high affinity murine anti-METH monoclonal antibody; light chain SEQ ID NO: 3, heavy chain SEQ ID NO: 4 (antibody, SYTHENSIZED) heavy: EIQLQQSGPELGKPGASVKVSCRASGFSFADYYIYWVKQSHGKSLELIGYIDPFNGGDTYNQIFKGKATLTVDKSSSTAFMYLNSLTSEDSAVYYCAAFRNPSFDFWGQGTTLTVSSAKTTPPSVYPLAPGSAAQTNSMVTLGCLVKGYFPEPVTVTWNSGSLSSGVHTFPAVLQSDLYTLSSSVTVPSSTWPSETVTCNVAHPASSTKVDKKIVPRDCGCKPCICTVPEVSSVFIFPPKPKDVLTITLTPKVTCVVVDISKDDPEVQFSWFVDDVEVHTAQTQPREEQFNSTFRSVSELPIMHQDWLNGKEFKCRVNSAAFPAPIEKTISKTKGRPKAPQVYTIPPPKEQMAKDKVSLTCMITDFFPEDITVEWQWNGQPAENYKNTQPIMDTDGSYFVYSKLNVQKSNWEAGNTFTCSVLHEGLHNHHTEKSLSHSPGK light: QIVLIQSPPIMSASPGEKVTLTCSASSSVSSRYLYWYQQKPGSSPKLWIYGTSNLASGVPARFSGSGSGTSFSLTISSMEAEDAASYFCHQWSSFPFTFGSGTKLEIKRADAAPTVSIFPPSSEQLTSGGASVVCFLNNFYPKDINVKWKIDGSERQNGVLNSWTDQDSKDSTYSMSSTLTLTKDEYERHNSYTCEATHKTSTSPIVKSFNRNEC", "values": [
      {"measurement": "responding with subsequent treatments every three days", "setting": "[1]; 30 mg/kg iv", "result": "maintained responding at levels always higher than the control"},
      {"measurement": "increase over control values", "setting": "[1]; 30 mg/kg iv, Day 1", "result": 143, "unit": "%"},
      {"measurement": "response rate (lever presses on reinforced lever)", "setting": "[1]; 30 mg/kg iv", "result": 70, "unit": "presses"},
      {"measurement": "responding with subsequent treatments every three days", "setting": "[1]; 56 mg/kg iv", "result": "progressively lower responses from the Day 1 level of responding"},
      {"measurement": "increase over control values", "setting": "[1]; 56 mg/kg iv, Day 1", "result": 182, "unit": "%"},
      {"measurement": "response rate (lever presses on reinforced lever)", "setting": "[1]; 56 mg/kg iv", "result": 91, "unit": "presses"},
      {"measurement": "lever presses", "setting": "[1]; 100 mg/kg iv, Day 1", "result": "~50", "unit": "lever presses"},
      {"measurement": "responding compared to vehicle", "setting": "[1]; 100 mg/kg iv, Day 1", "result": "at the same level as vehicle treatment responding"},
      {"measurement": "apparent METH dose on ascending side of simulated dose-response curve", "setting": "[1]; 100 mg/kg iv, Day 1, pharmacodynamic simulation, 50 responses", "result": "~0.025", "unit": "mg/kg/inj"},
      {"measurement": "responding compared to control", "setting": "[1]; 100 mg/kg iv, Day 7, after third dose", "result": "significantly reduced; also recorded: near extinction"},
      {"measurement": "responding", "setting": "[1]; 100 mg/kg iv, Day 10, administration stopped", "result": "remained blunted"},
      {"measurement": "responding", "setting": "[1]; 100 mg/kg iv, Day 13, administration stopped", "result": "return to near control levels of responding"},
      {"measurement": "responding compared to control", "setting": "[1]; 100 mg/kg iv, after the second administration", "result": "reduced responding below control levels"},
      {"measurement": "long-term in vivo METH binding function", "setting": "[2]", "result": "showed long-term functional properties"},
      {"measurement": "terminal elimination half-life", "setting": "[3]", "result": "~140", "unit": "h"}
    ]}
  ]
}
